One may read the Kd as the free concentration of one partner at which half of the binding sites on the other are occupied at equilibrium, for simple one-to-one binding. Higher therefore signals weaker binding.

The text below walks through data of patent US12534534 (F STAR BETA, dated 2026).

The target in one experiment is T1, cCD137-mFc-Avi (cynomolgus, Homodimer through the mouse Fc (one chain given). In the biotinylated version one biotin sits on the Avi-tag lysine of each monomer.).
T1 construct: dimer; biotinylated version used on streptavidin plates; also called cyno CD137-mFc-Avi; cyno CD137-mFc
T1 chain: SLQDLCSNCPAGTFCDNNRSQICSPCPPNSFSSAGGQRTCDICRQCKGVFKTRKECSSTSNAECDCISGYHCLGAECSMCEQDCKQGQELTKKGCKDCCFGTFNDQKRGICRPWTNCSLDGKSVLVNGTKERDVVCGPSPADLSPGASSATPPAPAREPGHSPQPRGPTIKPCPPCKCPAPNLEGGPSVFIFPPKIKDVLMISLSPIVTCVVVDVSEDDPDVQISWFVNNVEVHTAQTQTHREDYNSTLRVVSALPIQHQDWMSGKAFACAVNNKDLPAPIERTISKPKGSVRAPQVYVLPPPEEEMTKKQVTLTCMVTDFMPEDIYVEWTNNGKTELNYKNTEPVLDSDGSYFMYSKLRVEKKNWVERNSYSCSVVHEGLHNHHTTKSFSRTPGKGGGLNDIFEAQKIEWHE
The experiment can be described thus: SPR (Biacore 3000), mAb captured by anti-human Fc, dimeric CD137-mFc as analyte, 1:1 model with mass transfer. The method, then:
Briefly, 25 µg/ml anti-human IgG (Fc) antibody (GE Healthcare, Human Antibody Capture Kit, BR100839) was coated on flow cells 1, 2, 3 and 4 of a Biacore sensor chip CM5 (GE Healthcare, BR100012) for 3 minutes at 5 µl/min, achieving a final response of approximately 4300 RU. The mAb² clones, diluted in HBS-EP buffer (GE Healthcare, BR100188) at 0.5 µg/ml, were injected individually on flows cell 2, 3 and 4 at 30 µl/min to achieve a response of approximately 80 RU. […] Regeneration was achieved by injecting 3 M magnesium chloride (GE Healthcare, Human Antibody Capture Kit, BR100839) for 30 seconds at a rate of 30 µl/min. […] These slightly less stringent conditions were used to assess whether this molecule could bind to cyno CD137-mFc. Subtracted data (flow cell 2-flow cell 1, flow cell 3-flow cell 1, or flow cell 4-flow cell 1) were analysed using BIAevaluation 3.2 Software (GE Healthcare) to identify binding using the model 1:1 binding with mass transfer, with refractive index (RI) constant 0.

The target of a further experiment is T2, DR6-Fc (human, UniProt O75509 42-349, limits assumed).
T2 construct: bought; also called human DR6 (R&D Systems, 144-DR-100); not shown: Fc part of the bought fusion
T2 sequence (looked up): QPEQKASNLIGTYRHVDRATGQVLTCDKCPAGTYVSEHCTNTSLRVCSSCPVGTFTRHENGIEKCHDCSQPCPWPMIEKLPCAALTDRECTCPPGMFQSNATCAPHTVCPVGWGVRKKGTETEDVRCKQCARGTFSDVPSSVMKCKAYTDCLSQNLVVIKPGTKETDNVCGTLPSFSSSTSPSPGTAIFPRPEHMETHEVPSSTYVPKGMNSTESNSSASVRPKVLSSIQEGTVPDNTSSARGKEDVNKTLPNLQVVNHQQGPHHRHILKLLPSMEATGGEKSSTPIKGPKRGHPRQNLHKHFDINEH
The experiment can be described thus: SPR, antigen immobilised on CM5 chip. The method, then:
(§1) Flow cell 1 was run as a blank immobilisation. The five FS20-22-49AA/FS30 mAb² were diluted to 1 μM and 1 nM in 1×HBS-EP buffer (GE Healthcare, product code BR100188), allowed to flow over the chip for 3 min and then allowed to dissociate for 4 minutes. A 30-second injection of 10 mM glycine pH 1.5 was used for regeneration. […] Binding levels were determined at the end of the association phase and compared.
(§2) Specificity was tested against the same five human TNFRSF members closely-related to CD137 (TNFRSF1A, TNFRSF1B, GITR, NGFR and CD40) plus an additional closely-related TNFRSF member, human DR6 (DR6-Fc; R&D Systems, 144-DR-100), using SPR as described in Example 3.1.
A general note: In SPR one partner is held on a chip, and binding of the other changes the refractive index at the surface.

Another experiment deals with T3, GITR-hFc-Avi (human, UniProt Q9Y5U5 26-161).
T3 construct: in-house produced; not shown: hFc and Avi part
T3 sequence: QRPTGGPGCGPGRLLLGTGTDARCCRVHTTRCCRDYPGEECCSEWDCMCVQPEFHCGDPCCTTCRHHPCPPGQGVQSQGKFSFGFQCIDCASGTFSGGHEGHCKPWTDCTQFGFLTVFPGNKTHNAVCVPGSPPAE
In words: SPR, antigen immobilised on CM5 chip. The method, then:
as §1, §2

Another experiment concerns the target T4, TNFRSF1A-Fc (human, UniProt P19438 30-211, limits assumed).
T4 construct: bought; also called TNFRSF1A (R&D Systems, 372-RI-050/CF); not shown: Fc part of the bought fusion
T4 sequence (looked up): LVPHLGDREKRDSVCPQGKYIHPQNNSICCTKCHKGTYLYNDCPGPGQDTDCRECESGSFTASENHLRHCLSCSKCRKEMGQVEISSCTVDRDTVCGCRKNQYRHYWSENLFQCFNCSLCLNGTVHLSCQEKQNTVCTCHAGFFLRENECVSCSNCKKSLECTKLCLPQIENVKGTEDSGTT
The experiment can be described thus: SPR, antigen immobilised on CM5 chip. The method, then: as §1, §2

The target in a further experiment is T5, TNFRSF1B-Fc (human, UniProt P20333 23-257).
T5 construct: bought; also called TNFRSF1B (R&D Systems, 726-R2-050); not shown: Fc part of the bought fusion
T5 sequence (looked up): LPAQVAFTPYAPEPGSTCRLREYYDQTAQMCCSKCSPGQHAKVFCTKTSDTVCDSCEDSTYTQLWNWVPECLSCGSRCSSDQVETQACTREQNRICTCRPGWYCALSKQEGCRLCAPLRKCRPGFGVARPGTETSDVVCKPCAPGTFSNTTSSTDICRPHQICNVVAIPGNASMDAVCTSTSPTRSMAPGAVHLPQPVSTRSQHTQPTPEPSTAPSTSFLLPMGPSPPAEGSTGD
The experiment can be described thus: SPR, antigen immobilised on CM5 chip. The method, then: as §1, §2

Another experiment addresses T6, NGFR-Fc (human, UniProt P08138 29-250).
T6 construct: bought; also called NGFR (R&D Systems, 367-NR-050/CF); not shown: Fc part of the bought fusion
T6 sequence (looked up): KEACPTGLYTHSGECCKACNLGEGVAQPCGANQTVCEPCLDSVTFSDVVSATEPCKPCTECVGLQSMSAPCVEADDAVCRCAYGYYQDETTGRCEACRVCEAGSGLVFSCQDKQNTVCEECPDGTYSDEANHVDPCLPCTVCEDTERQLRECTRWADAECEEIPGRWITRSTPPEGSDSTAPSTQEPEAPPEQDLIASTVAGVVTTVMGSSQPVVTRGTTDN
In words: SPR, antigen immobilised on CM5 chip. The method, then:
as §1, §2

In another experiment the target is T7, CD40-mFc (human, UniProt P25942 21-193).
T7 construct: in-house produced; not shown: mFc part
T7 sequence (P25942 21-193): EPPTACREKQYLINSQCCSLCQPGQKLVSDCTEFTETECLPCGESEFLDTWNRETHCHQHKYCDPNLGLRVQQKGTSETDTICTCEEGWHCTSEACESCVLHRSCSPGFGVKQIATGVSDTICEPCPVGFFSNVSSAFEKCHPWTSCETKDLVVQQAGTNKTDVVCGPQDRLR
In words: SPR, antigen immobilised on CM5 chip. The method, then:
as §1, §2

For experiment [1], the target named is T8, human CD137 on DO11.10-hCD137 cells (human, UniProt Q07011 24-255). In words: cell-based or functional assay.
T8 sequence (Q07011 24-255): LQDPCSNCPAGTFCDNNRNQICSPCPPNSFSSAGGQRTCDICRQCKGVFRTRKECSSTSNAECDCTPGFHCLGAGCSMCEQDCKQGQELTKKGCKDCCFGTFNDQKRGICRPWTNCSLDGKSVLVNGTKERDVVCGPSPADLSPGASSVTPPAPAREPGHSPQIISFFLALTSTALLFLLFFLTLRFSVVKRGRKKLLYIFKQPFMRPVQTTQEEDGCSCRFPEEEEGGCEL
The target of experiment [2] is T8, human CD137 on DO11.10-hCD137 cells. In words: cell binding at 10 nM to DO11.10-hCD137 cells, against the parent FS20-22-49AA/FS30-5.
The target is the same in experiment [3]. In words: cell binding at 10 nM to DO11.10-hCD137 cells, against the parent FS20-22-49AA/FS30-16.

B1: G1/MOR7480.1 (antibody, human IgG1, lambda)
heavy: not shown
light: SYELTQPPSVSVSPGQTASITCSGDNIGDQYAHWYQQKPGQSPVLVIYQDKNRPSGIPERFSGSNSGNTATLTISGTQAMDEADYYCATYTGFGSLAVFGGGTKLTVLGQPKAAPSVTLFPPSSEELQANKATLVCLISDFYPGAVTVAWKADSSPVKAGVETTTPSKQSNNKYAASSYLSLTPEQWKSHRSYSCQVTHEGSTVEKTVAPTECS
notes: human IgG1 without LALA; also called MOR7480.1 in IgG1 format
In turn, B1 displayed a Kd with cCD137-mFc-Avi of 0.34 nM. Besides, the binding result in the experiment with DR6-Fc, with GITR-hFc-Avi, in the experiment with TNFRSF1A-Fc, with TNFRSF1B-Fc, with NGFR-Fc and with CD40-mFc was “no binding” each time.

B2: FS20-22-49AA/FS30-5 variant, Methionine (100H) to L (bispecific antibody, V domains shown)
VH: EVQLLESGGGLVQPGGSLRLNCAASGFTFSSYAMSWVRQAPGKGLEWVSAISGSGGSTYYADSVKGRFTISRDNSKNTLYLQMNSLRAEDTAVYYCARSYDKYWGSSMYSGLDYWGQGTLVTVSS
VL: EIVLTQSPGTLSLSPGERATLSCRASQSVSSSYLAWYQQKPGQAPRLLIYGASSRATGIPDRFSGSGSGTDFTLTISRLEPEDFAVYYCQQYYSYYPVTFGQGTKVEIKR
As for B2, the “DO11.10-hCD137 T cell activation assay EC50 (nM), crosslinked” value in [1] is 5.9 nM. The “fold change of cell binding at 10 nM against the parent clone” value in experiment [2] is < 1.3 fold.

B3: FS20-22-49AA/FS30-16 variant, Methionine (100A) to P (bispecific antibody, V domains shown)
VH: EVQLLESGGGLVQPGGSLRLSCAASGFTFSNYAMHWVRQAPGKGLEWVSTIDPTDGATNYADSVKGRFTISRDNSKNTLYLQMNSLRAEDTAVYYCARSKYYTYPQYVALDYWGQGTLVTVSS
VL: EIVLTQSPGTLSLSPGERATLSCRASQSVSSSYLAWYQQKPGQAPRLLIYGASSRATGIPDRFSGSGSGTDFTLTISRLEPEDFAVYYCQQGSRFFPITFGQGTKVEIKR
notes: Single-site variant of the parent mAb^2 FS20-22-49AA/FS30-16
With B3, the “fold change of cell binding at 10 nM against the parent clone” value in experiment [3] was < 1.6 fold.
